The subject of the series is Bacillus subtilis. Nature of the series: cleaved RNA product abundance (RNA/gDNA barcode ratio) relative to median wild-type variant (ratio to wild type); higher = more accumulation of the downstream cleavage product. In short, it runs like this: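 Oligos with a 9% error rate were used to build barcoded, mutagenized RNase Y cleavage-site windows within truncated aprE or tetM reporter mRNAs, which were integrated into the B. subtilis chromosome. Cultures were grown in LB at 37°C between OD600 0.0003 and 0.3. Cleaved RNA was gel-selected, reverse transcribed and barcode-sequenced, as were genomic DNA barcodes, and UMIs were collapsed. Cleaved product abundance is the scaled RNA:gDNA barcode ratio, with the median construct carrying the unmutated site as reference.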

The mark [1] stands for this setting: experiment (reporter, strain, medium): exp 8a: truncated aprE reporter, strain BJT201 with 2% xylose (RNase J1 expressed), cleavage site: glnRA (positions -5 to +31 mutated).
The mark [2] stands for this setting: experiment (reporter, strain, medium): exp 4a: truncated aprE reporter, strain BJT201 with 2% xylose (RNase J1 expressed), cleavage site: cggR-gapA (positions -7 to +36 mutated).
The mark [3] stands for this setting: experiment (reporter, strain, medium): exp 2b: truncated aprE reporter, strain BJT200, cleavage site: cggR-gapA (positions -7 to +36 mutated).

With “CGACATGTCCCGCTTCTTTCATTACTCCGTTAGCAACTGTTTTGCTATATACATTTGCCTTTTAAGAGGAGGAAT”, the “cleaved RNA product abundance” value under setting [1] turned out to be 0.366.

Take “ACAGACGAAGGAGCCGCAAAGAAGTTATTAGGGGTTGAATAATCCCTCAATATAAATATCTCTCACTTATTTAAA”: the “cleaved RNA product abundance” value under setting [2] was determined as 0.254.

For the sequence “CGACATGTCCCGCTTCTTTCATTAATTCGTTATCAACTGTTTTGCTATATACATTTACCTTTTAAGAGGAGGAAT”, the “cleaved RNA product abundance” value under setting [1] was found to be 0.31.

As to “CGACATGTCCCGCTTCTTTCATTAATTCGTTAGCAACTGTTTTGCTATATAAATTTACCTTTTAAGAGGAGGAAT”, under setting [1], the “cleaved RNA product abundance” value was 1.12.

For “ACAGACGAAGGAGCCGCAAAGAAGTTATAAAGGGATGAATAATCCGTCAATATAAATATCTCTCACTTATTTAAA”, the “cleaved RNA product abundance” value under setting [3] was determined as 0.154.

Regarding “ACAGACGAAGGAGCCGCAAAGAAGTTATTAAGGCATGAATAATCCCTCAACATAAATATCTCTCACTTATTTAAA”, the “cleaved RNA product abundance” value runs as follows: under setting [3], 0.119; under setting [2], 0.112.

With “ACAGACGAAGGAGCCGCAAAGAAATTATTAAGAGATGAATAATCCCTCAAAATAAATATCTCTCACTTATTTAAA”, under setting [3], the “cleaved RNA product abundance” value is 0.114.

Consider “ACAGACGAAGGAGCCGCAGAGAAGTTATTAAGGGATGATTAATCCCTCAATATAAATATCTCTCACTTATTTAAA”, for which, under setting [3], the “cleaved RNA product abundance” value amounted to 0.638.

“CGACATGTCCCGCTTCTTTCATTAATCCGTTAGAAACTGTTGTGCTATATACATTTACCTTTTAAGAGGAGGAAT”: under setting [1], the “cleaved RNA product abundance” value was found to be 0.361.

Turning to “CGACATGTCCCGCTTCTTTCATTAATCCGATAGCAACTGTTTTGATATATACATTTACCTTTTAAGAGGAGGAAT”, the “cleaved RNA product abundance” value under setting [1] was determined as 0.325.

On to “CGACATGTCCCGCTTCTTTCATTAATCCGTTAGCAACTGTTTTGCTATATACTTTTACCATTTAAGAGGAGGAAT”, for which the “cleaved RNA product abundance” value under setting [1] was found to be 0.769.

Take “ACAGACGAAGGAGCCGCAAATAAGTTAATAAGGGATGAATAATCCCTCAATATAAATATCTCTCACTTATTTAAA”: the “cleaved RNA product abundance” value under setting [3] stood at 0.247 and the “cleaved RNA product abundance” value under setting [2] worked out at 0.343.

Take “CGACATGTCCCGCTTCTTTCATTAATCGGTTATCAACTGTTTTGCTATATACATTTACCTTTTAAGAGGAGGAAT”: the “cleaved RNA product abundance” value under setting [1] was found to be 0.206.

In the case of “ACAGACGAAGGAGCCGCAAAGAAGTTATTAAGCGATGAATAATCCCTCAAGATAAATATCTCTCACTTATTTAAA”, the “cleaved RNA product abundance” value under setting [3] worked out at 0.0861 and the “cleaved RNA product abundance” value under setting [2] was 0.0789.

As for “ACAGACGAAGGAGCCGCAAAGAAGTTATTAAGGGATGAAAAATCCCTCAATAAAAATATCTCTCACTTATTTAAA”, the “cleaved RNA product abundance” value under setting [2] came to 0.217.

For “ACAGACGAAGGAGCCGCAAAGAAGTAATTAAGGGATGAATAATCCCTCAATATAAATAGCTCTCACTTATTTAAA”, the “cleaved RNA product abundance” value under setting [2] came out at 0.15.

In the case of “ACAGACGAAGGAGCCGCAAAGAAGTTATTAAGGGATGAATAACCCCTCAATATACATATCTCTCACTTATTTAAA”, under setting [2], the “cleaved RNA product abundance” value turned out to be 0.37.

Consider “CGACATGTCCCGCTTCTTTCATTAGTCCGTTAGCAACAGTTTTGCTATATACATTTACCTTTTAAGAGGAGGAAT”, for which the “cleaved RNA product abundance” value under setting [1] amounted to 0.968.

For the sequence “ACAGACGAAGGAGCCGCTAAGAAGTTGTTAAGGGATGAATAATCCCTCAATATAAATATCTCTCACTTATTTAAA”, the “cleaved RNA product abundance” value under setting [2] was determined as 0.503.

With “ACAGACGAAGGAGCCGCAAAGAAGTTATTAAGGGATGAATAATCTCTCAATATATATATCTCTCACTTATTTAAA”, the “cleaved RNA product abundance” value is 0.682 under setting [3] and 0.989 under setting [2].

As for “CGACATGTCCCGCTTCTTTCATTAATCCGTTAGCAACTGTTTTTCTATATTCATTTACCTTTTAAGAGGAGGAAT”, the “cleaved RNA product abundance” value under setting [1] turned out to be 0.189.

“ACAGACGAAGGAGCCGCAAAGAAGTTGTTAAGGGATGAATAATCCCTCTATATAAATATCTCTCACTTATTTAAA”: the “cleaved RNA product abundance” value under setting [2] came to 0.411.

For the sequence “CGACATGTCCCGCTTCTTTCATTATTCCGTTAGCAACTGTTTTGCTATATAGATTTACCTTTTAAGAGGAGGAAT”, under setting [1], the “cleaved RNA product abundance” value was determined as 1.02.

Take “CGACATGTCCCGCTTCTTTCATTAATCCGTAAACAACTCTTTTGCTATATACATTTACCTTTTAAGAGGAGGAAT”: the “cleaved RNA product abundance” value under setting [1] came to 0.202.

Regarding “ACAGACGAAGGAGCCGCAAAGAAGTTAATAAGGGATAAATAATCCCTCAATATAAATATCTCTCACTTATTTAAA”, the “cleaved RNA product abundance” value amounted to 0.253 under setting [3] and 0.382 under setting [2].

Consider “ACAGACGAAGGAGCCGCAAAGAAGTTATTAAGGGTTGAATCATCCCTCAATATAAATATCTCTCACTTATTTAAA”, for which the “cleaved RNA product abundance” value under setting [3] stood at 0.5.

In the case of “CGACATGTCCCGCTTCTTTCATTAATCCGTTACCAACTGTTTTACTATATACATTTACCTTTTAAGAGGAGGAAT”, under setting [1], the “cleaved RNA product abundance” value was 0.204.

Consider “ACAGACGAAGGAGCCGCAAAGAAGTCATTAAGGGATGAAAAATCCCTCAATATAAATATCTCTCACTTATTTAAA”, for which the “cleaved RNA product abundance” value reads like this: under setting [3], 0.173; under setting [2], 0.2.

The values are drawn from the supplement of paper PMC11780869.
